From publication doi:10.1101/2025.06.01.657267, “IFITM1 and IFITM3 cooperate to restrict virus entry in endolysosomes” (bioRxiv, 2025)

Target: T1, FLAG-IFITM3 G95L (human, UniProt Q01628 1-133, G95L)
T1 construct: Interferon-induced transmembrane protein 3 (IFITM3), human, with G95L in the GxxxG motif of the CD225 domain; also called pQCXIP-FLAG-IFITM3 G95L; source: HEK293T, stably expressing pQCXIP-FLAG-IFITM3 G95L, in lysate; HEK293T, transiently transfected, in fixed cells
Assay: affinity purification with mass spectrometry; anti-FLAG (M2) immunoprecipitation from whole cell lysates (1% Triton X-100, 150 mM NaCl) of HEK293T stably expressing FLAG-IFITM3 WT, G95L or Empty Vector; TMT labelling, duplicate MS runs
Conditions: partners not purified

T1 sequence (Q01628 whole entry G95L, the tested form may be a part): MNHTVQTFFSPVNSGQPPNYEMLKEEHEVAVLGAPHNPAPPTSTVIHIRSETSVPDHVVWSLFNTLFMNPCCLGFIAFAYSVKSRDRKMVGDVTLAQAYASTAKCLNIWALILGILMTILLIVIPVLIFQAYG

B1: endogenous IFITM1 (natural protein, UniProt P13164 1-125, looked up)
chain: MHKEEHEVAVLGPPPSTILPRSTVINIHSETSVPDHVVWSLFNTLFLNWCCLGFIAFAYSVKSRDRKMVGDVTGAQAYASTAKCLNIWALILGILMTIGFILLLVFGSVTVYHIMLQIIQEKRGY
notes: Interferon-induced transmembrane protein 1 (IFITM1), human, endogenous
  fold more IFITM1 pulled down by IFITM3 WT than by IFITM3 G95L: ~9 fold
